Experiments:
Experiment in all cases: MST; 2-hep HMM with C-terminal eGFP (fluorescence followed) titrated with increasing concentrations of unlabeled proximal S2; 23 °C; 10 mM imidazole pH 7.5, 100 mM KCl, 1 mM EDTA, 2 mM MgCl2, 1 mM DTT, 500 mM ADP, 0.05% Tween; MST power 60; isotherms fitted with the Hill equation
[1] = target: D382Y recombinant human β-cardiac myosin 2-hep HMM (UniProt P08590)
[2] = target: R719W recombinant human β-cardiac myosin 2-hep HMM (UniProt P08590)
[3] = target: WT recombinant human β-cardiac myosin 2-hep HMM (UniProt P08590)

Kd [1]: 45 µM | Kd [2]: 58 µM | Kd [3]: 37 µM
Substance: proximal S2 (amino acids 839–968) of human β-cardiac myosin (from UniProt P12883 839-968) (domain or fragment)
